Consider 1 substance from article PMC4351760.

In the assay the target is R276S/M395R GltPh mutant (Pyrococcus horikoshii) (UniProt O59010). The assay can be described thus: crystal structure.

On to “R276S/M395R GltPh mutant (from UniProt O59010 1-417) (natural protein)”, for which the stoichiometry N (usually a count of units in the complex or per binding partner) was 3.
